Experimental data reported in patent publication US20210071139A1.

Experiments:
TOX [1] = molecular target: TOX (UniProt Q66JW3); assay: anti-TOX IP from EL4 cells, mass spectrometry, MiST analysis
TOX [2] = molecular target: TOX (UniProt Q66JW3); assay: anti-TOX IP from EL4 nuclear extract, LC-MS/MS, MiST analysis

TOX, sequence (Q66JW3 whole entry): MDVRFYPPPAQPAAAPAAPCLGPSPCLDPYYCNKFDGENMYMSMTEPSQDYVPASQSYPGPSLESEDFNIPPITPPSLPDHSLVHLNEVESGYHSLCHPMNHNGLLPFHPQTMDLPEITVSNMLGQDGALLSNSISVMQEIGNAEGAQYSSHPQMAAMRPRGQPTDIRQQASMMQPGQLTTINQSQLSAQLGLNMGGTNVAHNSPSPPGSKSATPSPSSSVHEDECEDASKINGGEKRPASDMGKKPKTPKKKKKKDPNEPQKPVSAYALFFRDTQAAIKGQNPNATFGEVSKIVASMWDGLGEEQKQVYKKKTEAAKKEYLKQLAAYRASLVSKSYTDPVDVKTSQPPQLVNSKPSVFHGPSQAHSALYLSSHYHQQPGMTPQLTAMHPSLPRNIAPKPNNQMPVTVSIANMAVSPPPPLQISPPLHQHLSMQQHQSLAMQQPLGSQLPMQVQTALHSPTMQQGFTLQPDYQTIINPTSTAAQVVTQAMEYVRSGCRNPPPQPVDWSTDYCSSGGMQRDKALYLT
Emg1, sequence (O35130 whole entry): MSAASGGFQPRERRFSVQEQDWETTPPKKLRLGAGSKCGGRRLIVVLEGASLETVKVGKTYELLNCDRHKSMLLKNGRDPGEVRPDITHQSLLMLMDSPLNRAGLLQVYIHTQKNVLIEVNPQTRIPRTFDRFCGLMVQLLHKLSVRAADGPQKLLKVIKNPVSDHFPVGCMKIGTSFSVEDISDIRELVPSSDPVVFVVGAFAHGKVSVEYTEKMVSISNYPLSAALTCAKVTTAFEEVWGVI

Substance | Abundance (TOX [1]) | MiST Score (TOX [1]) | Reproducibility (TOX [1]) | Specificity (TOX [1]) | Abundance (TOX [2]) | MiST Score (TOX [2]) | Reproducibility (TOX [2]) | Specificity (TOX [2])
Aars (from UniProt Q8BGQ7 1-968) (enzyme) | 4.49e-06 | 0.827 | 0.459 | 1 |  |  |  | 
Acin1 (from UniProt Q9JIX8 1-1338) |  |  |  |  | 2.27e-05 | 0.77 | 0.612 | 0.848
Add3 (from UniProt Q9QYB5 2-706) | 3.22e-06 | 0.807 | 0.394 | 1 |  |  |  | 
Ahnak | 6.22e-06 | 0.812 | 0.497 | 0.961 |  |  |  | 
Ap3b1 (from UniProt Q9Z1T1 1-1105) |  |  |  |  | 4.13e-06 | 0.778 | 0.696 | 0.821
Ap3d1 (from UniProt O54774 2-1199) | 1.02e-06 | 0.817 | 0.427 | 1 |  |  |  | 
BC005685 |  |  |  |  | 0.000234 | 0.779 | 0.959 | 0.705
Bag6 (from UniProt Q9Z1R2 1-1154) |  |  |  |  | 1.4e-06 | 0.782 | 0.765 | 0.797
Baz1a (from UniProt O88379 1-1555) | 4.09e-07 | 0.825 | 0.454 | 1 |  |  |  | 
Brd1 |  |  |  |  | 3.1e-06 | 0.785 | 0.321 | 1
Cd3eap (from UniProt Q76KJ5 1-399) |  |  |  |  | 0.000224 | 0.773 | 0.993 | 0.68
Ckap5 (from UniProt A2AGT5 1-2032) | 1.02e-06 | 0.81 | 0.924 | 0.765 |  |  |  | 
Cpsf3 (from UniProt Q9QXK7 2-684) (enzyme) | 1.17e-05 | 0.825 | 0.871 | 0.811 |  |  |  | 
Csnk2a2 (from UniProt O54833 1-350) (enzyme) |  |  |  |  | 2.87e-05 | 0.778 | 0.913 | 0.725
Cycs (from UniProt P62897 2-105) |  |  |  |  | 8.14e-05 | 0.793 | 0.957 | 0.726
Ddx18 (from UniProt Q8K363 1-660) (enzyme) | 4.72e-05 | 0.822 | 0.986 | 0.756 |  |  |  | 

Substance | Abundance (TOX [1]) | MiST Score (TOX [1]) | Reproducibility (TOX [1]) | Specificity (TOX [1]) | Abundance (TOX [2]) | MiST Score (TOX [2]) | Reproducibility (TOX [2]) | Specificity (TOX [2])
Dnaja2 (from UniProt Q9QYJ0 1-409) | 0.000332 | 0.8 | 0.946 | 0.742 |  |  |  | 
Dnmt1 (from UniProt P13864 1-1620) (enzyme) | 4.05e-06 | 0.814 | 0.929 | 0.77 |  |  |  | 
Dst (from UniProt Q91ZU6 1-7393) | 1.97e-08 | 0.804 | 0.385 | 1 |  |  |  | 
Eif2a (from UniProt Q8BJW6 1-581) |  |  |  |  | 8.58e-05 | 0.794 | 0.992 | 0.712
Eif3h (from UniProt Q91WK2 1-352) |  |  |  |  | 0.000105 | 0.784 | 0.956 | 0.714
Elmo1 (from UniProt Q8BPU7 1-727) |  |  |  |  | 5.93e-06 | 0.769 | 0.595 | 0.854
Emg1 (from UniProt O35130 1-244) (enzyme) |  |  |  |  | 7.66e-05 | 0.766 | 0.939 | 0.695
Ep400 (from UniProt Q8CHI8 1-3072) | 2.31e-06 | 0.825 | 0.451 | 1 |  |  |  | 
Gm20425; Srprb (from UniProt P47758 1-269) |  |  |  |  | 5.88e-06 | 0.766 | 0.92 | 0.703
Hp1bp3 (from UniProt Q3TEA8 2-554) |  |  |  |  | 1.65e-05 | 0.766 | 0.779 | 0.766
Ipo4 (from UniProt Q8VI75 1-1082) | 1.65e-06 | 0.826 | 0.94 | 0.782 |  |  |  | 
Isy1 (from UniProt Q69ZQ2 1-285) | 3.22e-05 | 0.811 | 0.856 | 0.797 |  |  |  | 
LRWD1 (from UniProt Q8BUI3 1-648) | 9.87e-06 | 0.803 | 0.965 | 0.737 |  |  |  | 
Lmnb1 (from UniProt P14733 2-585) | 1.67e-05 | 0.822 | 0.964 | 0.766 |  |  |  | 
Lrrfip1 (from UniProt Q3UZ39 2-729) | 8.42e-06 | 0.817 | 0.996 | 0.743 |  |  |  | 
